Target: CD2
Experiment: flow cytometry on primary human T cells at day 5; CD2 detected with the competing clone RPA-2.10

Chain of CD2 (receptor chain, as listed by the source limits assumed, form in doubt): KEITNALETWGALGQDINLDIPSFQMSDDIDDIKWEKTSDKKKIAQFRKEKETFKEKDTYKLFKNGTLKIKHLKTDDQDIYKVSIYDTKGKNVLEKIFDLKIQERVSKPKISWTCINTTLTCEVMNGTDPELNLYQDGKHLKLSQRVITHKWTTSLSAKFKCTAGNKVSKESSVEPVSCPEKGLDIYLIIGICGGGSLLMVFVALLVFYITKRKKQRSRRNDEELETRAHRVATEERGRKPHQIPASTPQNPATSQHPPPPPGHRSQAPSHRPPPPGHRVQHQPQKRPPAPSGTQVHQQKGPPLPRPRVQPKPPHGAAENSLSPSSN

IC50 (read off the curve): 80 pM
Substance: CD2 RPA naked (antibody)
